The test addresses T1, tssk 2 fused to the GAL4 DNA binding domain (DNA-BD) (human, UniProt P04386 1-147 (Saccharomyces cerevisiae entry), limits assumed).
T1 construct: Yeast two-hybrid bait expressed in reporter strain AH109; also called bait gene (tssk 2); fusion protein of TSSK2 with the DNA-BD
Briefly: yeast two-hybrid, growth in His-free medium (AH109 reporter strain).

B1: GAL4 activation domain alone (GAL-AD plasmid) (other, UniProt P04386 768-881, looked up)
chain: ANFNQSGNIADSSLSFTFTNSSNGPNLITTQTNSQALSQPIASSNVHDNFMNNEITASKIDDGNNSKPLSPGWTDQTAYNAFGITTGMFNTTTMDDVYNYLFDDEDTPPNPKKE
notes: also called GAL-AD alone
On to B1, for which the binding result is “no binding”.

Values taken from patent EP1443117B1 (UNIVERSITY OF VIRGINIA PATENT FOUNDATION, dated 2010).
